From PMC7864571

Biological target: T1, NXF1(RRM-LRR) (UniProt Q9UBU9 96-362)
T1 sequence: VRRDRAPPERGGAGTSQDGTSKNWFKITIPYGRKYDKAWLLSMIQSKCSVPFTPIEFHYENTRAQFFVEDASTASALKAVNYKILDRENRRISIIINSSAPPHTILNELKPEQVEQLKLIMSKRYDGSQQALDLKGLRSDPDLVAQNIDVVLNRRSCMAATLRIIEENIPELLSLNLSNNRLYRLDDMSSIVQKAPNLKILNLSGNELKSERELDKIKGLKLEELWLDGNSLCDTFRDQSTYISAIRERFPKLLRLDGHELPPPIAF
Experiment: EMSA; in presence of GST-Nsp1(1-129); RNA binding of NXF1 not impaired; 10 mM Tris pH 8.0, 100 mM NaCl, 0.5 mM TCEP, 8% glycerol, 0.5 U/ul SUPERase-In, room temperature 10 min; 5% native PAGE; 100 nM RNA
Conditions: protein: recombinant; tags: GST tag removed by TEV; label: 5' Alexa Fluor 488; single strand

UUUUUUUUUUUUUUU (ssRNA) [poly(U) 15-mer RNA]: binds.
